Assay results published in patent US20150086555A1.
Read-outs that look alike come from different tables or passages of the source.

B1: TCN-563 (5237_B21) (antibody, V domains shown)
VH: QVQLAQSGAEVKRPGSSVKVSCTASGGIFRKNAISWVRQAPGQGLEWMGGIIAVFNTANYAQKFQGRVKITADESGNTAYMELSSLRSDDTAVYYCASHPKYFYGSGSYPDFWGQGTLVTVSS
VL: QSALTQPRSVSGSPGQSVTISCTGSSSDVGASNSVSWYQQHPGKAPKLVIYDVTERPSGVPHRFSGSKSGNTASLTVSGLQPEDEADYFCCAYGGKYLVVFGGGTKVTVL
B2: TCN-535 (5246_P19) (antibody, V domains shown)
VH: QVQLVQSGSEVKKPGTSVKVSCTASGSVFTNYGISWVRQAPGQGLEWMGGIIPLFGAAKYAQKFQGRVTITADESTKTVYMELSRLTSKDTAIYFCAKAPRVYEYYFDQWGQGTPVTVSS
VL: EIVLTQSPGTLSLSPGERATLSCRASQSVSSSQLAWYQQKPGQAPRLIIYGASTRATGIPDRFSGSGSGTDFTLTIGRLEPEDFAVFFCQQYSTSPPTFGQGTKVDFK
B3: TCN-530 (5248_H10a) (antibody, V domains shown)
VH: QVQLVQSGAEVRKPGSSVKVSCKASGGPFMSYAIGWVRQAPGQGLEWMGGINPVFGRPHYAQKFQGRVTIATDDSTKTSYMELSSLTSEDTGMYYCASRYSRSSPGTFESWGQGTLVTVSS
VL: EIVMTQFPATLSVSPGERVTLSCRASQSVSNNLAWYQQKPGQPPRLLIYDASTRATGVPAKFSGTGSGTEFTLSISSLQSEDFAVYYCQQYHNWPPSYSFGLGTKLEIK
B4: TCN-531 (5091_H13) (antibody, V domains shown)
VH: EVQLVESGGDLVQPGRSLKLSCTGSGFTFGDYGVTWVRQAPGKGLEWVGFIRTRPWGGTADTAASVKGRFTISRDDSKSLAYLQMNSLKTEDTAVYYCCRDAPPNVEVASMTNWYFDLWGRGTLVTVSS
VL: DIQLTQSPSSLSASVGDRVTITCRASQGILNCLAWYQQKPGKVPNLLMYAASTLQSGVPSRFSGSGFGTDFTLTISSLQPEDVATYYCQTYGGVSTFGGGTKVEIR
B5: TCN-536 (5095_N01) (antibody, V domains shown)
VH: QVQLQQWGAGLLKPSETLSLTCAVYGGSFSVSGYYWSWIRQPPGRGLEWIGEISHGGSTNYNPSLKSRVTISVDTTKNQFSLRLSSVTAADTAVYYCARGTDPDTEVYCRVGNCAAFDYWGQGSLVTVSS
VL: EIILAQSPGTLSLSPGERATLSCRASQFVSTRSLAWYQQRPGQAPRLLIYGASSRATGIPDRFSGSGSGTDFTLTISRLEPEDFAVYYCQHYGYSPRYAFGQGSKVEIK
B6: TCN-534 (5249_B02) (antibody, V domains shown)
VH: QVQLVQSGAEVKKPGSSVKVSCRESGGTFNGYTITWVRQAPGQGLEWMGGIIPMMGTVNYAQKLQGRVTITTDYFTKTAYMDLNNLRSEDTAMYYCVKIRYTGQQLLWGQGTLVTVSS
VL: DIQMTQSPSTLSASIGDRVTITCRASQSIASWLAWYQQKPGKAPKLLIYEAVNLESGVPSRFSGSGSGTDFTLTISSLQPDDFATYFCQHYGTISQTFGGGTKVEIK
B7: TCN-523 (5248_A17) (antibody, V domains shown)
VH: QVQLVQSGAEVKKPGSSVKVSCKASGGSFSNYAFSWVRQAPGQGLEWMGGTIPLLGTTNYAQKFQGRVTISADQFTSTAYMELGSLRSEDTAVYYCTRRKMTTAFDSWGQGTLVTVSS
VL: QPVLTQPPSASASLGASVTLTCTLSSAYSNYKVDWYQQRPGKGPRFVMRVGTGGIVGSKGDGIPDRFSVLGSGLNRYLTIKNIQEEDESDYHCGADHGSGSNFVSPYVFGGGTKLTVL
B8: TCN-564 (5256_A17b) (antibody, V domains shown)
VH: QVQLVQSGADVKKPGSSVTVSCKASGGSFSNYGINWVRQAPGQGLEWMGGIIPLINAPNYAPKFQGRVTITADMFSNIVSLQLTSLRTDDTAVYYCARRKMTTAIDYWGQGTLVTVSS
VL: QPVLSQPPSASASLGASVTLTCTLSSGFDNYQVAWYQQRPGKGPRFVMRVGNGGNVASKGDGIPDRFSVSGSGLNRYLTIKNIQEDDESDYYCGADHGSGNNFVSPYVFGGGTKLTVL
B9: TCN-540 (5060_F05) (antibody, V domains shown)
VH: QVQLVQSGGGVVQPGRSLRLSCAASGFTFSSYAMHWVRQAPGKGLEWVAIISYDGNDQYYTDSVKGRFTISRDSSKVYLQMHRLRPEDTAVYYCAKEFETSGYFHGSFDYWGQGILVTVSS
VL: QSALTQPASVSGSPGQSITISCTGTSSDVGGYNYVSWYQQHPGKAPKLLIYEVTNWPSGVSNRFSGSKSGNTASLTISGLQAEDEADYYCSSYAGSSTWVFGGGTRVTVL
B10: TCN-504 (3251_K17) (antibody, V domains shown)
VH: QVQLQESGPGLVKPSETLSLTCAVSGVSISNIDFYWGWIRQPPGKGLEWIGNIYYTGITFYNPSLSSRVAISIDTSKNQFSLTLTSVTAADTAMYYCARHYGDSEAINDAFDIWGQGTMLTVSS
VL: EIVMTQSPATLSVSPGERATLSCRASQSVGNSLAWYQQRPGQAPRLLIYGASTRATGIPPRFSGSGSGTEFTLTISSLQTEDFAVYYCQQYINWRPLSFGGGTKVEIK

Columns and labels:
Details in all cases: remark: other sources report otherwise
[1] = biological target: T1, recombinant soluble homotrimeric HA of A/common magpie/Hong Kong/5052/07 (H5N1) (Influenza A virus A/common magpie/Hong Kong/5052/2007(H5N1))
[2] = biological target: T1, recombinant soluble homotrimeric HA of …; experiment: HA microarray, BCC supernatant
[3] = biological target: T1, recombinant soluble homotrimeric HA of …; experiment: trimeric HA microarray, transfection supernatant set 2
[4] = biological target: recombinant homotrimeric HA A/common magpie/Hong Kong/5052/07 H5N1 (Influenza A virus A/common magpie/Hong Kong/5052/2007(H5N1)); experiment: protein microarray, purified IgG, trimeric HA
[5] = biological target: T1, recombinant soluble homotrimeric HA of …; experiment: trimeric HA microarray, transfection supernatant set 4
[6] = biological target: T1, recombinant soluble homotrimeric HA of …; experiment: trimeric HA microarray, transfection supernatant set 3
[7] = biological target: recombinant soluble homotrimeric HA, A/common magpie/Hong Kong/5052/07 H5N1 (Influenza A virus A/common magpie/Hong Kong/5052/2007(H5N1)); experiment: microarray, transfection SN IgG, trimeric HA
[8] = biological target: T1, recombinant soluble homotrimeric HA of …; experiment: trimeric HA microarray, transfection supernatant set 1
[9] = biological target: T1, recombinant soluble homotrimeric HA of …; experiment: trimeric HA microarray, transfection supernatant set 5
[10] = biological target: T1, recombinant soluble homotrimeric HA of …; experiment: HA microarray, control antibody

Binder | Trimeric HA Binding: RLU [2] | Trimeric HA Binding: RLU [3] | Trimeric HA Binding: RLU [4] | Trimeric HA Binding: RLU [5] | Trimeric HA Binding: RLU [6] | other results
B1 | 27500 RLU | 52800 RLU |  |  |  | Trimeric HA Binding: RLU [1]: 20000 RLU
B2 | 45900 RLU |  | 20400 RLU | 477 RLU |  | 
B3 | 42500 RLU |  | 10300 RLU |  | 5580 RLU | 
B4 |  |  | 674 RLU |  | 37 RLU | 
B5 |  |  | 794 RLU | 27 RLU |  | 
B6 | 32500 RLU |  | 16500 RLU | 127 RLU |  | 
B7 | 45800 RLU | 7210 RLU | 20900 RLU | 2130 RLU | 640 RLU | Trimeric HA Binding: RLU [7]: 33900 RLU; Trimeric HA Binding: RLU [8]: 6240 RLU
B8 |  |  |  |  |  | Trimeric HA Binding: RLU [1]: 20800 RLU
B9 | 113 RLU |  | 799 RLU |  |  | Trimeric HA Binding: RLU [9]: 1800 RLU
B10 |  | 16800 RLU |  | 8680 RLU | 17800 RLU | Trimeric HA Binding: RLU [10]: 17000 RLU; Trimeric HA Binding: RLU [7]: 37300 RLU; Trimeric HA Binding: RLU [8]: 29700 RLU
